Results from paper doi:10.1101/2019.12.26.888982 (bioRxiv, 2019).

B1: Human TRPA1 (N-terminal-tagged MBP-TRPA1), unmodified (apo or with the antagonist A-967079) (natural protein)
chain: MKRSLRKMWRPGEKKEPQGVVYEDVPDDTEDFKESLKVVFEGSAYGLQNFNKQKKLKRCDDMDTFFLHYAAAEGQIELMEKITRDSSLEVLHEMDDYGNTPLHCAVEKNQIESVKFLLSRGANPNLRNFNMMAPLHIAVQGMNNEVMKVLLEHRTIDVNLEGENGNTAVIIACTTNNSEALQILLKKGAKPCKSNKWGCFPIHQAAFSGSKECMEIILRFGEEHGYSRQLHINFMNNGKATPLHLAVQNGDLEMIKMCLDNGAQIDPVEKGRCTAIHFAATQGATEIVKLMISSYSGSVDIVNTTDGCHETMLHRASLFDHHELADYLISVGADINKIDSEGRSPLILATASASWNIVNLLLSKGAQVDIKDNFGRNFLHLTVQQPYGLKNLRPEFMQMQQIKELVMDEDNDGCTPLHYACRQGGPGSVNNLLGFNVSIHSKSKDKKSPLHFAASYGRINTCQRLLQDISDTRLLNEGDLHGMTPLHLAAKNGHDKVVQLLLKKGALFLSDHNGWTALHHASMGGYTQTMKVILDTNLKCTDRLDEDGNTALHFAAREGHAKAVALLLSHNADIVLNKQQASFLHLALHNKRKEVVLTIIRSKRWDECLKIFSHNSPGNKCPITEMIEYLPECMKVLLDFCMLHSTEDKSCRDYYIEYNFKYLQCPLEFTKKTPTQDVIYEPLTALNAMVQNNRIELLNHPVCKEYLLMKWLAYGFRAHMMNLGSYCLGLIPMTILVVNIKPGMAFNSTGIINETSDHSEILDTTNSYLIKTCMILVFLSSIFGYCKEAGQIFQQKRNYFMDISNVLEWIIYTTGIIFVLPLFVEIPAHLQWQCGAIAVYFYWMNFLLYLQRFENCGIFIVMLEVILKTLLRSTVVFIFLLLAFGLSFYILLNLQDPFSSPLLSIIQTFSMMLGDINYRESFLEPYLRNELAHPVLSFAQLVSFTIFVPIVLMNLLIGLAVGDIAEVQKHASLKRIAMQVELHTSLEKKLPLWFLRKVDQKSTIVYPNKPRSGGMLFHIFCFLFCTGEIRQEIPNADKSLEMEILKQKYRLKDLTFLLEKQHELIKLIIQKMEIISETEDDDSHCSFQDRFKKEQMEQRNSRWNTVLRAVKAKTHHLEP
B2: Human TRPA1 (MBP-TRPA1) modified with iodoacetamide (IA), activated state (natural protein)
chain: B1 chain
modifications: iodoacetamide covalent adduct at Cys621; weaker density at Cys665, which may reflect partial modification
B3: Human TRPA1 (MBP-TRPA1) modified with BODIPY-iodoacetamide (BIA) (natural protein)
chain: KRSLRKMWRPGEKKEPQGVVYEDVPDDTEDFKESLKVVFEGSAYGLQNFNKQKKLKRCDDMDTFFLHYAAAEGQIELMEKITRDSSLEVLHEMDDYGNTPLHCAVEKNQIESVKFLLSRGANPNLRNFNMMAPLHIAVQGMNNEVMKVLLEHRTIDVNLEGENGNTAVIIACTTNNSEALQILLKKGAKPCKSNKWGCFPIHQAAFSGSKECMEIILRFGEEHGYSRQLHINFMNNGKATPLHLAVQNGDLEMIKMCLDNGAQIDPVEKGRCTAIHFAATQGATEIVKLMISSYSGSVDIVNTTDGCHETMLHRASLFDHHELADYLISVGADINKIDSEGRSPLILATASASWNIVNLLLSKGAQVDIKDNFGRNFLHLTVQQPYGLKNLRPEFMQMQQIKELVMDEDNDGCTPLHYACRQGGPGSVNNLLGFNVSIHSKSKDKKSPLHFAASYGRINTCQRLLQDISDTRLLNEGDLHGMTPLHLAAKNGHDKVVQLLLKKGALFLSDHNGWTALHHASMGGYTQTMKVILDTNLKCTDRLDEDGNTALHFAAREGHAKAVALLLSHNADIVLNKQQASFLHLALHNKRKEVVLTIIRSKRWDECLKIFSHNSPGNKCPITEMIEYLPECMKVLLDFCMLHSTEDKSCRDYYIEYNFKYLQCPLEFTKKTPTQDVIYEPLTALNAMVQNNRIELLNHPVCKEYLLMKWLAYGFRAHMMNLGSYCLGLIPMTILVVNIKPGMAFNSTGIINETSDHSEILDTTNSYLIKTCMILVFLSSIFGYCKEAGQIFQQKRNYFMDISNVLEWIIYTTGIIFVLPLFVEIPAHLQWQCGAIAVYFYWMNFLLYLQRFENCGIFIVMLEVILKTLLRSTVVFIFLLLAFGLSFYILLNLQDPFSSPLLSIIQTFSMMLGDINYRESFLEPYLRNELAHPVLSFAQLVSFTIFVPIVLMNLLIGLAVGDIAEVQKHASLKRIAMQVELHTSLEKKLPLWFLRKVDQKSTIVYPNKPRSGGMLFHIFCFLFCTGEIRQEIPNADKSLEMEILKQKYRLKDLTFLLEKQHELIKLIIQKMEIISETEDDDSHCSFQDRFKKEQMEQRNSRWNTVLRAVKAKTHHLEP
modifications: BODIPY-IA (BIA) covalent adduct at Cys621

Target: the molecule itself
Experiment: cryo-EM structure

Binding result, binds:
B1
B2
B3
